B1: Rho guanine nucleotide exchange factor 9 (Rattus norvegicus (Rat)), Q9QX73 (parent)
chain: MQWIRGGSGMLITGDSIVSAEAVWDHVTMANRGVAFKAGDVIKVLDASNKDWWWGQIDDEEGWFPASFVRLWVNQEDGVEEGPSDVQNGHLDPNSDCLCLGRPLQNRDQMRANVINEIMSTERHYIKHLKDICEGYLKQCRKRRDMFSDEQLKVIFGNIEDIYRFQMGFVRDLEKQYNNDDPHLSEIGPCFLEHQDGFWIYSEYCNNHLDACMELSKLMKDSRYQHFFEACRLLQQMIDIAIDGFLLTPVQKICKYPLQLAELLKYTAQDHSDYRYVAAALAVMRNVTQQINERKRRLENIDKIAQWQASVLDWEGDDILDRSSELIYTGEMAWIYQPYGRNQQRVFFLFDHQMVLCKKDLIRRDILYYKGRIDMDKYEVIDIEDGRDDDFNVSMKNAFKLHNKETEEVHLFFAKKLEEKIRWLRAFREERKMVQEDEKIGFEISENQKRQAAMTVRKASKQKGRVGEEENQSLELKRACEVLQRLWSPGKKS
partner: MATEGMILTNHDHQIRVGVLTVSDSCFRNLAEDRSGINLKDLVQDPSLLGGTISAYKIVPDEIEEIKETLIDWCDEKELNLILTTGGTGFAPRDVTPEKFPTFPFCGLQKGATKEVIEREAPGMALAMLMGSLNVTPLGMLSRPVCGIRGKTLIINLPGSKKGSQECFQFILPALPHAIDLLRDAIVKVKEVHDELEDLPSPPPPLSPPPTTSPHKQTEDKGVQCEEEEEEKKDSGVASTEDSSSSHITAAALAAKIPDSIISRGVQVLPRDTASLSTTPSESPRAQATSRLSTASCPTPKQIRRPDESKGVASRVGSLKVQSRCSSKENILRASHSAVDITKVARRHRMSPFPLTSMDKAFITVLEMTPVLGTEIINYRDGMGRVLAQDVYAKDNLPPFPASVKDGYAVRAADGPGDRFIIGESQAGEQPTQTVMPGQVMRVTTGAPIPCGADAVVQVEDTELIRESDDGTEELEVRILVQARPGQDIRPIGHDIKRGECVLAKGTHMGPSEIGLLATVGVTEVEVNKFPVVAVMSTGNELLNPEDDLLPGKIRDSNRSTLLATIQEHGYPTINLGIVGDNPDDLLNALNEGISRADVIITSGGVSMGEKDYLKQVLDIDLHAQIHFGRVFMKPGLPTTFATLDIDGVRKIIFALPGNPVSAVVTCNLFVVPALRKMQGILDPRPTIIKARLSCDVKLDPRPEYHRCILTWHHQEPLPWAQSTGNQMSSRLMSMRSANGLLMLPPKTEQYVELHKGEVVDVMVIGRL

Variants of: B1
Settings: with geph_rat Gphn

Variant | effect of a mutation on the interaction
MQWIRGGSGMLITGDSIVSAEAVWDHVTMANRGVAFKAGDVIKVLDASNKDWWWGQIDDEEGWFPASFVRLWVNQEDGVEEGPSDVQNGHLDPNSDCLCLGRPLQNRDQMAANVINEIMSTERHYIKHLKDICEGYLKQCRKRRDMFSDEQLKVIFGNIEDIYRFQMGFVRDLEKQYNNDDPHLSEIGPCFLEHQDGFWIYSEYCNNHLDACMELSKLMKDSRYQHFFEACRLLQQMIDIAIDGFLLTPVQKICKYPLQLAELLKYTAQDHSDYRYVAAALAVMRNVTQQINERKRRLENIDKIAQWQASVLDWEGDDILDRSSELIYTGEMAWIYQPYGRNQQRVFFLFDHQMVLCKKDLIRRDILYYKGRIDMDKYEVIDIEDGRDDDFNVSMKNAFKLHNKETEEVHLFFAKKLEEKIRWLRAFREERKMVQEDEKIGFEISENQKRQAAMTVRKASKQKGRVGEEENQSLELKRACEVLQRLWSPGKKS [R111A] | disrupting interaction
MQWIRGGSGMLITGDSIVSAEAVWDHVTMANRGVAFKAGDVIKVLDASNKDWWWGQIDDEEGWFPASFVRLWVNQEDGVEEGPSDVQNGHLDPNSDCLCLGRPLQNAAQMRANVINAIMSTERHYIKHLKDICEGYLKQCRKRRDMFSDEQLKVIFGNIEDIYRFQMGFVRDLEKQYNNDDPHLSEIGPCFLEHQDGFWIYSEYCNNHLDACMELSKLMKDSRYQHFFEACRLLQQMIDIAIDGFLLTPVQKICKYPLQLAELLKYTAQDHSDYRYVAAALAVMRNVTQQINERKRRLENIDKIAQWQASVLDWEGDDILDRSSELIYTGEMAWIYQPYGRNQQRVFFLFDHQMVLCKKDLIRRDILYYKGRIDMDKYEVIDIEDGRDDDFNVSMKNAFKLHNKETEEVHLFFAKKLEEKIRWLRAFREERKMVQEDEKIGFEISENQKRQAAMTVRKASKQKGRVGEEENQSLELKRACEVLQRLWSPGKKS [R107A;D108A;E117A] | with no effect

Variants of: B1
Settings: with geph_rat Gphn
Remark: another data set of the same source

Variant | effect of a mutation on the interaction
MQWIRGGSGMLITGDSIVSAEAVWDHVTMANRGVAFKAGDVIKVLDASNKDWWWGQIDDEEGWFPASFVRLWVNQEDGVEEGPSDVQNGHLDPNSDCLCLGRPLQNAAQMRANVINAIMSTERHYIKHLKDICEGYLKQCRKRRDMFSDEQLKVIFGNIEDIYRFQMGFVRDLEKQYNNDDPHLSEIGPCFLEHQDGFWIYSEYCNNHLDACMELSKLMKDSRYQHFFEACRLLQQMIDIAIDGFLLTPVQKICKYPLQLAELLKYTAQDHSDYRYVAAALAVMRNVTQQINERKRRLENIDKIAQWQASVLDWEGDDILDRSSELIYTGEMAWIYQPYGRNQQRVFFLFDHQMVLCKKDLIRRDILYYKGRIDMDKYEVIDIEDGRDDDFNVSMKNAFKLHNKETEEVHLFFAKKLEEKIRWLRAFREERKMVQEDEKIGFEISENQKRQAAMTVRKASKQKGRVGEEENQSLELKRACEVLQRLWSPGKKS [R107A;D108A;E117A] | disrupting interaction strength

Reference: IntAct's records for PubMed 16616186
